In this data set the test system is O=S(O)(O)=S. In words: purified protein. Conditions: pH 8.0; 37.0 °C.

In the case of “CysA2 (Mycobacterium tuberculosis H37Rv)”, the Km was 2.97 ± 0.05 mM.

A word on the Km: it is the concentration of substrate that gives half-maximal velocity.

These data come from article PMC6856128 (Scientific Reports, 2019).
